Experimental data taken from publication PMC3287209 (Nucleic Acids Research, 2012).

Legend:
crystal structure = molecular target: the molecule itself; test: crystal structure
XLF wild-type = XLF wild-type (human, UniProt Q9H9Q4 1-299); test: native gel or EMSA

Row | Binder | stoichiometry N (crystal structure) | binding result (XLF wild-type)
1 | XLF^1–224 (domain or fragment) MEELEQGLLMQPWAWLQLAENSLLAKVFITKQGYALLVSDLQQVWHEQVDTSVVSQRAKELNKRLTAPPAAFLCHLDNLLRPLLKDAAHPSEATFSCDCVADALILRVRSELSGLPFYWNFHCMLASPSLVSQHLIRPLMGMSLALQCQVRELATLLHMKDLEIQDYQESGATLIRDRLKTEPFEENSFLEQFMIEKLPEACSIGDGKPFVMNLQDLYMAVTTQ | 2 | –
2 | XRCC4^1–157 (domain or fragment) MERKISRIHLVSEPSITHFLQVSWEKTLESGFVITLTDGHSAWTGTVSESEISQEADDMAMEKGKYVGELRKALLSGAGPADVYTFNFSKESCYFFFEKNLKDVSFRLGSFNLEKVENPAEVIRELICYCLDTIAENQAKNEHLQKENERLLRDWND | – | binds
